As a reminder, the Kd is the free concentration of one partner at which half of the binding sites on the other are occupied at equilibrium, for simple one-to-one binding.

Four molecules from paper PMC5065165, “Mechanistic Insights into Archaeal and Human Argonaute Substrate Binding and Cleavage Properties” can be followed below.

The target of data set [1] is T1, MjAgo (Methanocaldococcus jannaschii) (UniProt Q58717).
T1 sequence: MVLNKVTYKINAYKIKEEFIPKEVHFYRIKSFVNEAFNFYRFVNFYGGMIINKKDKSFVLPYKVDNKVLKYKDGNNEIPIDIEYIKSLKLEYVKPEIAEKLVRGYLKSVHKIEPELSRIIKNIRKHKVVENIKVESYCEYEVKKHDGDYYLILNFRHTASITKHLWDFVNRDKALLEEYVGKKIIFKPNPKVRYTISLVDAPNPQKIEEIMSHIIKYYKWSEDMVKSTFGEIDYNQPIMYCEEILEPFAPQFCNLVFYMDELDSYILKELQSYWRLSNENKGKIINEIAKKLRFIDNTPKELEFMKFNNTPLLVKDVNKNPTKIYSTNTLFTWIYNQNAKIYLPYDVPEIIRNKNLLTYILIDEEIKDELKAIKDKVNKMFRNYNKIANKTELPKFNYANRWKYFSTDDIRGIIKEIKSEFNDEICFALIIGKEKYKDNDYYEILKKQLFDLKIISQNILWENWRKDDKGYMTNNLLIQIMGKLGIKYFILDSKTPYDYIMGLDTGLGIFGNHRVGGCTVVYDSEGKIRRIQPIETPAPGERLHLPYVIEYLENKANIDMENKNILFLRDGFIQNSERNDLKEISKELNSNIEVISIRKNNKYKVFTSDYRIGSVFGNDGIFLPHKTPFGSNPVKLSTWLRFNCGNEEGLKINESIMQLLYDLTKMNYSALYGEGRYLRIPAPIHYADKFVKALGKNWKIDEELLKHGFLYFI
Description: equilibrium fluorescence titration. The following applies: 5'-phosphate on guide; Stopped-flow at 25 °C, 20 nM FAM-labelled guide, same buffers as titrations (buffer composition not in the material; hybridization buffer 15 mM Hepes pH 7.4 …).

Data set [2] addresses T2, MjAgo (Methanocaldococcus jannaschii, UniProt Q58717 1-713).
T2 sequence: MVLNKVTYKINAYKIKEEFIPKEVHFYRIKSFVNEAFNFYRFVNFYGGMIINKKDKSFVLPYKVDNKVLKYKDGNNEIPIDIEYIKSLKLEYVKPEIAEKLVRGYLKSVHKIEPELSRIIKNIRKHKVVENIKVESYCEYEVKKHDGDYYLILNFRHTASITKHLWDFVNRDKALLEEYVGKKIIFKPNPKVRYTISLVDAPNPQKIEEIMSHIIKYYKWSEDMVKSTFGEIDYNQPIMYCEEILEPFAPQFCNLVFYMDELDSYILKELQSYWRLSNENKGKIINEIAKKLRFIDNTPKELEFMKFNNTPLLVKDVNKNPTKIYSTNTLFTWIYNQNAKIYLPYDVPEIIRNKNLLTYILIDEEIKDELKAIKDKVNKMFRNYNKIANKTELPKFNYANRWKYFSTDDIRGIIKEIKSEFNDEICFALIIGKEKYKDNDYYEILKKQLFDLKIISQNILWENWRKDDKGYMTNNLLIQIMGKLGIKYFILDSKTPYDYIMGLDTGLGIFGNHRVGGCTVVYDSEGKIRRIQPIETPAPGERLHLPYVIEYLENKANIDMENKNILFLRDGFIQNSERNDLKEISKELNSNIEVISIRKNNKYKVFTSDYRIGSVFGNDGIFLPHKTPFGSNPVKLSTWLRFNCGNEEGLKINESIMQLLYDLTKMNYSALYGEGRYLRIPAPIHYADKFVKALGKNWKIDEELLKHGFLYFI
The experiment in a line: stopped-flow fluorescence; two-step, third phase undetectable; k2 0.018 s-1; Kd n.d.; Stopped-flow at 25 °C, 20 nM FAM-labelled guide, same buffers as titrations (buffer composition not in the material; hybridization buffer 15 mM Hepes pH 7.4, 50 mM K-acetate, 1 mM Mg-acetate). The conditions noted are these: protein: recombinant; partially mismatched; guide preloaded on Ago, target added.

The target of data set [3] is T2, MjAgo. The experiment in a line: equilibrium fluorescence titration; Stopped-flow at 25 °C, 20 nM FAM-labelled guide, same buffers as titrations (buffer composition not in the material; hybridization buffer 15 mM Hepes pH 7.4, 50 mM K-acetate, 1 mM Mg-acetate). The conditions noted are these: protein: recombinant; label: C6-linked 5/6-FAM at T14.
The target in a further data set is hAgo2 (human, UniProt Q9UKV8 1-859). The experiment in a line: stopped-flow fluorescence; three-step; k1 0.1e8 M-1 s-1; Kd n.d.; Stopped-flow at 25 °C, 20 nM FAM-labelled guide, same buffers as titrations (buffer composition not in the material; hybridization buffer 15 mM Hepes pH 7.4, 50 mM K-acetate, 1 mM Mg-acetate). The following applies: protein: recombinant; label: C6-linked 5/6-FAM at T14.
hAgo2, sequence (Q9UKV8 whole entry): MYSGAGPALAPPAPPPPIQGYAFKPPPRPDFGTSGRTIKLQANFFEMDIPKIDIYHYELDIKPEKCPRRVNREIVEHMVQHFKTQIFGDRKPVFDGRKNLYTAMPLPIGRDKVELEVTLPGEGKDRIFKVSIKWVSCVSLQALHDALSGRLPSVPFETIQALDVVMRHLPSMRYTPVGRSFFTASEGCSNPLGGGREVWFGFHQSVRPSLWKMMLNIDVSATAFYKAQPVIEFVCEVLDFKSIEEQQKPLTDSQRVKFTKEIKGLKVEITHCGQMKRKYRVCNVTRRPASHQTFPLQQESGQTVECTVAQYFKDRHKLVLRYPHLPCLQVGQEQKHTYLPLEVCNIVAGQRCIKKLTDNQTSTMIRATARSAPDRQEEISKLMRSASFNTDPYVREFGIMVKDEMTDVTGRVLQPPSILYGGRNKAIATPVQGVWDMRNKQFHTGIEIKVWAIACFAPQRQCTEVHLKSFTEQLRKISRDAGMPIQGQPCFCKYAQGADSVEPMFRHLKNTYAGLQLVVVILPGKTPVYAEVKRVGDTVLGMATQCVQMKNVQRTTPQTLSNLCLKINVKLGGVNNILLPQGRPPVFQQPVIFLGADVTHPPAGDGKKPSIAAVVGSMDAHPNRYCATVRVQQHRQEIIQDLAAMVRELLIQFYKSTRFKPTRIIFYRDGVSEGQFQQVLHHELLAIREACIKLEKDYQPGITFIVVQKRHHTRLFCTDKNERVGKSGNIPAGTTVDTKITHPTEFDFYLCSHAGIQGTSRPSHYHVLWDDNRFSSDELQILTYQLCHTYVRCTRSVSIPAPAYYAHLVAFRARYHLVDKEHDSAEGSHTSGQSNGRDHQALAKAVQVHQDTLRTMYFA

Data set [4] addresses T3, MjAgo Mid mutant (Tyr442Ala) (Methanocaldococcus jannaschii, UniProt Q58717 1-713, Y442A).
T3 sequence: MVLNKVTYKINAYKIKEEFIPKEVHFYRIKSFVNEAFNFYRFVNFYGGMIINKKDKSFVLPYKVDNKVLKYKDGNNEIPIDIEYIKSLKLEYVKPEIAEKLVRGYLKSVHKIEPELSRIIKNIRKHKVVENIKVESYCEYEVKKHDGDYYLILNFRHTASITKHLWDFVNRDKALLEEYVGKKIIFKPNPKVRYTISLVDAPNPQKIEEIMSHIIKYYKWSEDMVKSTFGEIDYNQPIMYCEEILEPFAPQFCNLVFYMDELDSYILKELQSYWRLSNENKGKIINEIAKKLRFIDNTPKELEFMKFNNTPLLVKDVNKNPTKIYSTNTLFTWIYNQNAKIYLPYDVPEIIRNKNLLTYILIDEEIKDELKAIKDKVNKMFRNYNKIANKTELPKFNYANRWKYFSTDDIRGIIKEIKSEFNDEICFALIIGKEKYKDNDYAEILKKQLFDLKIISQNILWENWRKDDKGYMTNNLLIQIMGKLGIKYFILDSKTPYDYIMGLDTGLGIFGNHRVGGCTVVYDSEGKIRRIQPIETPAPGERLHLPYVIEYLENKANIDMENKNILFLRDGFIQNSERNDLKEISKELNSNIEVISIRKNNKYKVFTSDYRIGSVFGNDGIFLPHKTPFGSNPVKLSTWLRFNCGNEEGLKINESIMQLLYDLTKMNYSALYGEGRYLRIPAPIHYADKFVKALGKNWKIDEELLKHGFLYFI
Description: stopped-flow fluorescence; two-step, Mid binding phase missing; k3 0.002 s-1; Kd n.d.; Stopped-flow at 25 °C, 20 nM FAM-labelled guide, same buffers as titrations (buffer composition not in the material; hybridization buffer 15 mM Hepes pH 7.4, 50 mM K-acetate, 1 mM Mg-acetate). The conditions noted are these: protein: recombinant; label: C6-linked 5/6-FAM at T14.

Data set [5] concerns the target T2, MjAgo. The experiment in a line: equilibrium fluorescence titration; target binding to preformed MjAgo-guide DNA; Stopped-flow at 25 °C, 20 nM FAM-labelled guide, same buffers as titrations (buffer composition not in the material; hybridization buffer 15 mM Hepes pH 7.4, 50 mM K-acetate, 1 mM Mg-acetate). The following applies: protein: recombinant; label: C6-linked 5/6-FAM at guide T14; guide preloaded on Ago, target added; 3' overhang 2 nt on both strands.

“TAGAGGTACGTGCTGAGGCTT / GCCTCAGCACGTACCTCTATT [D-as2bFAM/D-s2b (ds siDNA, D-si2bFAM)]” showed a Kd in data set [1] of 103 nM.

B1: D-as2bFAM guide DNA / 3'-mismatched target DNA (D-s2bmm) (dsDNA)
DNA 1: TAGAGGTACGTGCTGAGGCTT
DNA 2: GCCTCAGCAGCGGGAATATTT
modifications: 5'-phosphate on guide
Turning to B1, the binding result with MjAgo [2] was “binds”.

B2: D-as2bFAM (ss guide DNA) (ssDNA)
DNA: TAGAGGTACGTGCTGAGGCTT
modifications: 5'-phosphate
For B2, in the data set with MjAgo [3], the Kd is 3.4 ± 0.4 nM. Besides, the binding result (in the data set with hAgo2; in data set [4]) was “binds” each time.

B3: D-as2bFAM guide DNA / D-s2b target DNA (dsDNA)
DNA 1: TAGAGGTACGTGCTGAGGCTT
DNA 2: GCCTCAGCACGTACCTCTATT
modifications: 5'-phosphate on guide
Consider B3, for which the Kd with MjAgo [5] came to 0.5 ± 0.04 nM.
